One series has as its target T1, RAD52 (Homo sapiens, UniProt P43351 1-418).
T1 sequence: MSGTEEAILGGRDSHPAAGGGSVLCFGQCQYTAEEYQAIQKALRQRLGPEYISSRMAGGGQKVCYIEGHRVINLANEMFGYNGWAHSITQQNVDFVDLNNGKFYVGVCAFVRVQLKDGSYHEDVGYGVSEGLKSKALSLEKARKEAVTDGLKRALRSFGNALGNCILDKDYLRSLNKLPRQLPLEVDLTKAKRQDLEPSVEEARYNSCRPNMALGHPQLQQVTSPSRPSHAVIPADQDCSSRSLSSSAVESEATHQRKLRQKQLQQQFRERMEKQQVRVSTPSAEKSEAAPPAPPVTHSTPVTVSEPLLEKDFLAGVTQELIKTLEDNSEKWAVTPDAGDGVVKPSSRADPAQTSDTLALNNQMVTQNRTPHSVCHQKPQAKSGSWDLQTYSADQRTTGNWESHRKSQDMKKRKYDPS
Nature of the series: EMSA. Background: In EMSA bound probe runs differently from free probe, usually more slowly.

For the next series, the target named is RPA complex (Homo sapiens, UniProt P27694;P15927;P35244 1-616;1-270;1-121). Nature of the series: EMSA.
RPA complex, sequence (P27694 whole entry, chain 1 of 3): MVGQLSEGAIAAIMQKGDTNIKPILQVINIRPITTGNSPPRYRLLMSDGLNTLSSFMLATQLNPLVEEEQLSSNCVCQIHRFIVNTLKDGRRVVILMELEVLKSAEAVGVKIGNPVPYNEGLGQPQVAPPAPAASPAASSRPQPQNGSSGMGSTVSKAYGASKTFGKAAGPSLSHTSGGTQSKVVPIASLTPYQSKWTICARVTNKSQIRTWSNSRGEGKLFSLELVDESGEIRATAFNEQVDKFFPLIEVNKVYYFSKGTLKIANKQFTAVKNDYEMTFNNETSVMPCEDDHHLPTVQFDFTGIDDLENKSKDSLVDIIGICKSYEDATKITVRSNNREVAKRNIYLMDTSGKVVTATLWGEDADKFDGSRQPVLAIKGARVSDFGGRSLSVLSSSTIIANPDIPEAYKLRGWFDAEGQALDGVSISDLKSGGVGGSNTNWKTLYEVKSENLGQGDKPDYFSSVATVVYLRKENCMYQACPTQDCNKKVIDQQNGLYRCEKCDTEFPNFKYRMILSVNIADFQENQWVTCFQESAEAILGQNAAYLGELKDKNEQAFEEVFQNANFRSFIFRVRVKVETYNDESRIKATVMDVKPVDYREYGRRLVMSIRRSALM
RPA complex, sequence (P15927 whole entry, chain 2 of 3): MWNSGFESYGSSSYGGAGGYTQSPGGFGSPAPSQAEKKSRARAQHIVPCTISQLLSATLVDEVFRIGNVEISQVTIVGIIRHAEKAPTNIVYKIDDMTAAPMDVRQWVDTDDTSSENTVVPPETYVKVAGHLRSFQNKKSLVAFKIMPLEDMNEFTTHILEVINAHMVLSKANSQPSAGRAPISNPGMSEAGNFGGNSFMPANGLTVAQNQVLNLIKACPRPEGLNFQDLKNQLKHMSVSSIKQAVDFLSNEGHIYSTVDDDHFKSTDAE
RPA complex, sequence (P35244 whole entry, chain 3 of 3): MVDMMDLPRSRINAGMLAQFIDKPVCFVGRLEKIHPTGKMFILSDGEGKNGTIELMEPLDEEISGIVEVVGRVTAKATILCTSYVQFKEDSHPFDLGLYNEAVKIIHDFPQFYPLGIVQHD

B1: ssTelo (Telo G-strand) (ssDNA)
DNA: TTAGGGTTAGGGTTAGGGTTAGGGTTAGGGTTAGGGTTAGGGTTAGGGTTAGGGTTAGGG
In the case of B1, the binding result in the series with RAD52 and with RPA complex was “binds” throughout.

The values above are taken from PMC6366628.
